Where “and” joins values, the source holds several entries; their conditions need not be identical. Equal entries are not always repeated.
Target: IL-15 receptor complex on CTLL-2 cells
Test: cell-based or functional assay

| Substance | CTLL Inhibition Assay units/ml (Antagonist Activity) | concentration of antagonist required to neutralize 40 pg/ml IL-15 in CTLL inhibition assay [ng/mL] |
| --- | --- | --- |
| IL-15 (from UniProt P40933 49-162) (ligand) | 279 units/ml | – |
| IL-15-D56C (from UniProt P40933 49-162) (ligand) | 2e+06 units/ml and 5e+06 units/ml | – |
| IL-15-D56C-Q156C (from UniProt P40933 49-162) (ligand) | 200000 units/ml | – |
| IL-15-D56C-Q156S (from UniProt P40933 49-162) (ligand) | 700000 units/ml | – |
| IL-15-D56S (from UniProt P40933 49-162) (ligand) | 220000 units/ml | – |
| IL-15-D56S-Q156S (from UniProt P40933 49-162) (ligand) | 720000 units/ml | – |
| IL-15-Q156C (from UniProt P40933 49-162) (ligand) | 3e+06 units/ml | – |
| IL-15-Q156S (from UniProt P40933 49-162) (ligand) | 1.5e+06 units/ml | – |
| PEG-IL-15-D56C (from UniProt P40933 49-162) (ligand) | 7.96e+06 units/ml | 7.7 |

Source: patent US20040253587A1
